Drawing on publication PMC10786891, “Massively parallel profiling of RNA-targeting CRISPR-Cas13d”, this text covers Kd for 37 molecules.

Residue numbers refer to the chain shown, from its start. Names may count otherwise.

To fix the notation:
T1: EsCas13d, nuclease-dead (Eubacterium siraeum, UniProt B0MS50, R295A;H300A;R849A;H854A)
T1 sequence: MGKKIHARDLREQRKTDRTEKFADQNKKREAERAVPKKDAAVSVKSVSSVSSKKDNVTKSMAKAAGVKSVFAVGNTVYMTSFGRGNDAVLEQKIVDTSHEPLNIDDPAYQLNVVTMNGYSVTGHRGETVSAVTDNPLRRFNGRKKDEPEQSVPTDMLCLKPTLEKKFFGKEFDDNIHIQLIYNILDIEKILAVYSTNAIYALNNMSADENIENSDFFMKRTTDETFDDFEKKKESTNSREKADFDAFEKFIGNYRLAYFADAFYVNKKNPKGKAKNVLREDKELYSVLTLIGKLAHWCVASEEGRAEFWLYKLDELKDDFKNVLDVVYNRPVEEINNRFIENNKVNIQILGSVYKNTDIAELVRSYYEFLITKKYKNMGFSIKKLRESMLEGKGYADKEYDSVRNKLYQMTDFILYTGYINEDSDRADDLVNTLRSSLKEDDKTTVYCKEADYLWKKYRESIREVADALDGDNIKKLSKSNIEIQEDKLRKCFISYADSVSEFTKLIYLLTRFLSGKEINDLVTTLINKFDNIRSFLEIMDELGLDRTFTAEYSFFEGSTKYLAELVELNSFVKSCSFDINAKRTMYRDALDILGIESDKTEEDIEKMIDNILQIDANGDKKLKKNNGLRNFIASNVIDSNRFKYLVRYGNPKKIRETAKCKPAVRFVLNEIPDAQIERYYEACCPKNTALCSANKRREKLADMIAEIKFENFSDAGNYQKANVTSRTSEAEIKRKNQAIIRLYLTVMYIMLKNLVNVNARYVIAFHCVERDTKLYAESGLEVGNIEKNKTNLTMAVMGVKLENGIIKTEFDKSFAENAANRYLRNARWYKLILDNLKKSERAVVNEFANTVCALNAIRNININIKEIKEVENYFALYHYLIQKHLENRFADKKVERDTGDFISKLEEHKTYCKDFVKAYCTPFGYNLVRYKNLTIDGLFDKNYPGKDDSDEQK

B1: target 1 MT 5'PFS GAC 3'PFS UGA (mixed)
RNA 1: CACCCGUGCAAAAAUGCAGGGGUCUAAAACUGAGCGGAUAACCUCUCUAUGG
RNA 2: GGGAAUGGAUCCACAUCUACGAAUUCGACCCAUAGAGAGGUUAUCCGCUCAUGAAGAUCGGAAGAGCACACGU
B2: target 1 MT 5'PFS UUA 3'PFS UCG (mixed)
RNA 1: B1 RNA 1
RNA 2: B1 RNA 2 with G27U, A28U, C29A, G53C, A54G
B3: target 1 MT 5'PFS GGA 3'PFS CCU (mixed)
RNA 1: B1 RNA 1
RNA 2: B1 RNA 2 with A28G, C29A, U52C, G53C, A54U
B4: target 1 MT 5'PFS GUG 3'PFS UGC (mixed)
RNA 1: B1 RNA 1
RNA 2: B1 RNA 2 with A28U, C29G, A54C
B5: target 1 MT 5'PFS UUA 3'PFS UCA (mixed)
RNA 1: B1 RNA 1
RNA 2: B1 RNA 2 with G27U, A28U, C29A, G53C
B6: target 1 MT 5'PFS GUC 3'PFS UGG (mixed)
RNA 1: B1 RNA 1
RNA 2: B1 RNA 2 with A28U, A54G
B7: target 1 MT 5'PFS UUA 3'PFS ACA (mixed)
RNA 1: B1 RNA 1
RNA 2: B1 RNA 2 with G27U, A28U, C29A, U52A, G53C
B8: target 1 MT 5'PFS GGA 3'PFS CCG (mixed)
RNA 1: B1 RNA 1
RNA 2: B1 RNA 2 with A28G, C29A, U52C, G53C, A54G
B9: target 1 MT 5'PFS UUA 3'PFS ACC (mixed)
RNA 1: B1 RNA 1
RNA 2: B1 RNA 2 with G27U, A28U, C29A, U52A, G53C, A54C
B10: target 1 MT 5'PFS GAC 3'PFS UGU (mixed)
RNA 1: B1 RNA 1
RNA 2: B1 RNA 2 with A54U
B11: target 1 insU 3' of 22,insC 3' of 12 (mixed)
RNA 1: B1 RNA 1
RNA 2: GGGAAUGGAUCCACAUCUACGAAUUCGUACUCAUAGAGAGGCUUAUCCGCUCACCGAGAUCGGAAGAGCACACGU
B12: target 1 MT 5'PFS AUG 3'PFS CAC (mixed)
RNA 1: B1 RNA 1
RNA 2: B1 RNA 2 with G27A, A28U, C29G, U52C, G53A, A54C
B13: target 1 MT 5'PFS UUA 3'PFS ACG (mixed)
RNA 1: B1 RNA 1
RNA 2: B1 RNA 2 with G27U, A28U, C29A, U52A, G53C, A54G
B14: target 1 MT 5'PFS GUG 3'PFS UGA (mixed)
RNA 1: B1 RNA 1
RNA 2: B1 RNA 2 with A28U, C29G
B15: target 1 MT 5'PFS GCG 3'PFS AGA (mixed)
RNA 1: B1 RNA 1
RNA 2: B1 RNA 2 with A28C, C29G, U52A
B16: target 1 MT 5'PFS GAG 3'PFS AUC (mixed)
RNA 1: B1 RNA 1
RNA 2: B1 RNA 2 with C29G, U52A, G53U, A54C
B17: target 1 MT 5'PFS GUC 3'PFS UGA (mixed)
RNA 1: B1 RNA 1
RNA 2: B1 RNA 2 with A28U
B18: target 1 MT 5'PFS CCA 3'PFS AGU (mixed)
RNA 1: B1 RNA 1
RNA 2: B1 RNA 2 with G27C, A28C, C29A, U52A, A54U
B19: target 1 MT 5'PFS GGC 3'PFS CAG (mixed)
RNA 1: B1 RNA 1
RNA 2: B1 RNA 2 with A28G, U52C, G53A, A54G
B20: target 1 MT 5'PFS AGC 3'PFS AGG (mixed)
RNA 1: B1 RNA 1
RNA 2: B1 RNA 2 with G27A, A28G, U52A, A54G
B21: target 1 C2U,A9G (mixed)
RNA 1: B1 RNA 1
RNA 2: B1 RNA 2 with A28U, C29A, A43G, C50U, U52C, G53C, A54G
B22: target 1 MT 5'PFS GAG 3'PFS AUA (mixed)
RNA 1: B1 RNA 1
RNA 2: B1 RNA 2 with C29G, U52A, G53U
B23: target 1 MT 5'PFS GAC 3'PFS CCU (mixed)
RNA 1: B1 RNA 1
RNA 2: B1 RNA 2 with U52C, G53C, A54U
B24: target 1 MT 5'PFS CAG 3'PFS CUG (mixed)
RNA 1: B1 RNA 1
RNA 2: B1 RNA 2 with G27C, C29G, U52C, G53U, A54G
B25: target 1 MT 5'PFS CCU 3'PFS ACC (mixed)
RNA 1: B1 RNA 1
RNA 2: B1 RNA 2 with G27C, A28C, C29U, U52A, G53C, A54C
B26: target 1 MT 5'PFS GGC 3'PFS CAC (mixed)
RNA 1: B1 RNA 1
RNA 2: B1 RNA 2 with A28G, U52C, G53A, A54C
B27: target 1 MT 5'PFS UUG 3'PFS UCG (mixed)
RNA 1: B1 RNA 1
RNA 2: B1 RNA 2 with G27U, A28U, C29G, G53C, A54G
B28: target 1 MT 5'PFS GUG 3'PFS UGG (mixed)
RNA 1: B1 RNA 1
RNA 2: B1 RNA 2 with A28U, C29G, A54G
B29: target 1 C2A,A14C (mixed)
RNA 1: B1 RNA 1
RNA 2: B1 RNA 2 with A28U, C29A, A38C, C50A, U52C, G53C, A54G
B30: target 1 insG 3' of 9,insU 3' of 1 (mixed)
RNA 1: B1 RNA 1
RNA 2: GGGAAUGGAUCCACAUCUACGAAUUCGUACCAUAGAGAGGUUAGUCCGCUCAUCCGAGAUCGGAAGAGCACACGU
B31: target 1 MT 5'PFS GUC 3'PFS UGC (mixed)
RNA 1: B1 RNA 1
RNA 2: B1 RNA 2 with A28U, A54C
B32: target 1 MT 5'PFS GGC 3'PFS AAG (mixed)
RNA 1: B1 RNA 1
RNA 2: B1 RNA 2 with A28G, U52A, G53A, A54G
B33: target 1 MT 5'PFS UUU 3'PFS AUC (mixed)
RNA 1: B1 RNA 1
RNA 2: B1 RNA 2 with G27U, A28U, C29U, U52A, G53U, A54C
B34: target 1 MT 5'PFS GUC 3'PFS UGU (mixed)
RNA 1: B1 RNA 1
RNA 2: B1 RNA 2 with A28U, A54U
B35: target 1 MT 5'PFS GUC 3'PFS CCU (mixed)
RNA 1: B1 RNA 1
RNA 2: B1 RNA 2 with A28U, U52C, G53C, A54U
B36: target 1 MT 5'PFS GUG 3'PFS UGU (mixed)
RNA 1: B1 RNA 1
RNA 2: B1 RNA 2 with A28U, C29G, A54U
B37: target 1 MT 5'PFS GAG 3'PFS AUU (mixed)
RNA 1: B1 RNA 1
RNA 2: B1 RNA 2 with C29G, U52A, G53U, A54U

The target in the data set is T1, EsCas13d, nuclease-dead. Put plainly: crRNA (strand 1, pre-loaded); Mg2+; 40 mM Tris-HCl pH 7.5, 150 mM NaCl, 6 mM MgCl2, 1 mM DTT, 0.1% Tween-20, 0.2 mg/ml BSA; 25 C; 10 min per concentration, then washed. Conditions: tags: His6-TwinStrep-SUMO cleaved; N-terminal SNAP kept (SNAP-Surface 488); label: 3' end held by stalled T7 RNA polymerase.
On to B1, for which the dissociation constant (Kd) was roughly 27.2 nM.
B2 showed a Kd of 13.6 ± 2.85 nM.
As for B3, binding was characterised by a dissociation constant (Kd) of 10.3 ± 2.85 nM.
As for B4, the figure is 9.4 ± 0.45 nM; as for B5, 25 ± 6.5 nM; as for B6, 65 ± 15.5 nM.
For B7, the equilibrium dissociation constant (Kd) is 37 ± 13 nM.
As for B8, the figure is 28.5 ± 7.5 nM.
Under B9 stands roughly 22.5 nM; under B10, 41.5 ± 12.5 nM.
As for B11, the figure is 92 ± 34 nM; as for B12, roughly 29.5 nM; as for B13, 21.8 ± 4.7 nM.
For B14, the affinity, expressed as Kd, was 14.9 ± 1.15 nM.
As for B15, the figure is 26.4 ± 4.8 nM.
Under B16 stands roughly 60 nM.
In the case of B17, the Kd worked out at 14.7 ± 3.4 nM.
Under B18 stands 14 ± 5.9 nM; under B19, 25.5 ± 8.5 nM.
Under B20 stands roughly 60 nM.
As for B21, the figure is 15.4 ± 1.4 nM; as for B22, 34 ± 8.5 nM; as for B23, roughly 14 nM.
In turn, B24 gave a Kd of 19 ± 7.5 nM.
B25 returned a dissociation constant Kd of roughly 14 nM.
The molecule B26 had a Kd of roughly 17 nM.
B27 came in with a Kd of 58.5 ± 22.5 nM.
Under B28 stands 110 ± 19.5 nM; under B29, 48.7 ± 3.1 nM.
As for B30, the figure is 23.3 ± 3.4 nM; as for B31, 13.2 ± 2.95 nM.
As for B32, the figure is 36 ± 10 nM; as for B33, 55 ± 18 nM.
The molecule B34 showed a dissociation constant Kd of 21.5 ± 5 nM. Against the preceding molecule, the Kd is about 2.6-fold lower.
Under B35 stands 15.3 ± 2.6 nM.
Regarding B36, the dissociation constant Kd was 27.1 ± 2.4 nM.
As for B37, the figure is 36 ± 11 nM.

Usually Kd stands for the free concentration of one partner at which half of the binding sites on the other are occupied at equilibrium, for simple one-to-one binding.
